In the Immune Epitope Database (IEDB):
Each block holds one sequence with its values, some of them ahead of it.

Key:
HLA-B*57:01 [1] = experiment: IEDB peptide-MHC binding, purified MHC/direct/fluorescence; filed as Kd, often an IC50 or EC50 that approximates it; ≥ and ≤ were set here for values at or beyond the usual limits of such assays; settings: source organism: Campylobacter jejuni RM1221
HLA-B*58:01 [2] = experiment: as above; settings: source organism: Campylobacter jejuni RM1221
HLA-B*15:17 [3] = experiment: as above; settings: source organism: Campylobacter jejuni RM1221
HLA-C*15:02 = experiment: as above
HLA-A*23:01 = experiment: IEDB peptide-MHC binding, purified MHC/competitive/fluorescence; filed as Kd, often an IC50 or EC50 that approximates it; ≥ and ≤ were set here for values at or beyond the usual limits of such assays
HLA-C*05:01 = experiment: IEDB peptide-MHC binding, purified MHC/direct/fluorescence; filed as Kd, often an IC50 or EC50 that approximates it; ≥ and ≤ were set here for values at or beyond the usual limits of such assays
HLA-C*03:03 = experiment: as above
HLA-C*12:03 = experiment: as above
HLA-A*02:06 = experiment: IEDB peptide-MHC binding, purified MHC/competitive/fluorescence; filed as Kd, often an IC50 or EC50 that approximates it; ≥ and ≤ were set here for values at or beyond the usual limits of such assays
HLA-A*02:03 = experiment: as above
HLA-A*02:11 = experiment: as above
HLA-A*02:01 [4] = experiment: IEDB peptide-MHC binding, purified MHC/direct/fluorescence; filed as Kd, often an IC50 or EC50 that approximates it; ≥ and ≤ were set here for values at or beyond the usual limits of such assays; settings: source organism: Haemophilus influenzae
HLA-A*01:01 [5] = experiment: as above; settings: source organism: Haemophilus influenzae
HLA-B*15:01 [6] = experiment: as above; settings: source organism: Haemophilus influenzae
HLA-A*69:01 [7] = experiment: as above; settings: source organism: Haemophilus influenzae
HLA-B*15:01 [8] = experiment: IEDB peptide-MHC binding, purified MHC/competitive/fluorescence; filed as Kd, often an IC50 or EC50 that approximates it; ≥ and ≤ were set here for values at or beyond the usual limits of such assays
HLA-B*51:01 = experiment: as above
HLA-B*35:01 = experiment: as above; settings: source organism: Mycobacterium tuberculosis C
HLA-B*07:02 = experiment: IEDB peptide-MHC binding, purified MHC/direct/fluorescence; filed as Kd, often an IC50 or EC50 that approximates it; ≥ and ≤ were set here for values at or beyond the usual limits of such assays; settings: source organism: Mycobacterium tuberculosis variant bovis BCG str. Pasteur 1173P2
HLA-A*26:01 = experiment: IEDB peptide-MHC binding, purified MHC/competitive/fluorescence; filed as Kd, often an IC50 or EC50 that approximates it; ≥ and ≤ were set here for values at or beyond the usual limits of such assays; settings: source organism: Escherichia coli 536
HLA-B*27:03 = experiment: as above; settings: source organism: Escherichia coli 536
HLA-B*18:01 = experiment: as above; settings: source organism: Escherichia coli 536
HLA-B*57:01 [9] = experiment: as above; settings: source organism: Escherichia coli 536
HLA-A*02:01 [10] = experiment: as above
HLA-A*68:02 = experiment: as above; settings: source organism: Escherichia coli 536
HLA-A*29:02 = experiment: as above; settings: source organism: Escherichia coli 536
HLA-A*02:19 = experiment: as above; settings: source organism: Escherichia coli 536
HLA-B*46:01 = experiment: as above; settings: source organism: Escherichia coli 536
HLA-B*39:01 = experiment: as above; settings: source organism: Escherichia coli 536
HLA-A*24:03 = experiment: as above; settings: source organism: Escherichia coli 536
HLA-A*69:01 [11] = experiment: as above; settings: source organism: Escherichia coli 536
HLA-A*03:01 = experiment: as above; settings: source organism: Escherichia coli 536
HLA-A*02:12 = experiment: as above; settings: source organism: Escherichia coli 536
HLA-A*02:16 = experiment: as above; settings: source organism: Escherichia coli 536
HLA-B*15:17 [12] = experiment: as above; settings: source organism: Escherichia coli 536
HLA-B*53:01 = experiment: IEDB peptide-MHC binding, purified MHC/competitive/fluorescence; ≥ and ≤ were set here for values at or beyond the usual limits of such assays; settings: source organism: human gammaherpesvirus 4
HLA-C*04:01 = experiment: IEDB peptide-MHC binding, purified MHC/competitive/fluorescence; filed as Kd, often an IC50 or EC50 that approximates it; ≥ and ≤ were set here for values at or beyond the usual limits of such assays
HLA-B*15:42 = experiment: as above
HLA-B*45:06 = experiment: as above
HLA-B*83:01 = experiment: as above
HLA-B*58:01 [13] = experiment: as above; settings: source organism: Escherichia coli
HLA-A*01:01 [14] = experiment: as above; settings: source organism: Escherichia coli
[15] = source organism: Escherichia coli O157:H7 str. EDL933
[16] = source organism: Human herpesvirus 4 strain B95-8
[17] = source organism: Haemophilus influenzae R3021
[18] = source organism: Haemophilus influenzae R2846
[19] = source organism: Salmonella enterica subsp. enterica serovar Typhi str. CT18
[20] = source organism: Mycobacterium tuberculosis C
[21] = source organism: Escherichia coli 536
[22] = source organism: Yersinia pestis Nepal516
[23] = source organism: Yellow fever virus 1899/81

Sequence: HSNSEYLMF
Kd (HLA-B*57:01 [1]): 134 nM
Kd (HLA-B*58:01 [2]): 5.5 nM
Kd (HLA-B*15:17 [3]): 1.1 nM
Kd (HLA-C*15:02; source organism: Campylobacter jejuni): 93 nM

Kd (HLA-A*23:01; [15]): ≤ 1 nM
Kd (HLA-C*05:01; [15]): 37 nM
Kd (HLA-C*03:03; [15]): 60 nM
Sequence: YVLNGYTEF

Sequence: KAVETPILV
Kd (HLA-C*12:03; [16]): ≤ 1 nM
Kd (HLA-C*15:02; [16]): 51 nM

Kd (HLA-A*02:06; [17]): ≤ 0.1 nM
Kd (HLA-A*02:03; [17]): 4.4 nM
Kd (HLA-A*02:11; [17]): ≤ 0.1 nM
Kd (HLA-A*02:01 [4]): 71 nM
Kd (HLA-A*01:01 [5]): 2100 nM
Kd (HLA-B*15:01 [6]): ≥ 67200 nM
Kd (HLA-A*69:01 [7]): 2660 nM
Sequence: MLEEMQSAV

Kd (HLA-C*05:01; [18]): 16 nM
Kd (HLA-C*15:02; [18]): ≥ 20000 nM
Sequence: TSDEIYMTF

Sequence: MMQTYTGAL
Kd (HLA-B*15:01 [8]; [19]): 64.9 nM
Kd (HLA-C*03:03; [19]): 119 nM

Sequence: WPVLGSEVL
Kd (HLA-B*51:01; [20]): ≥ 20000 nM
Kd (HLA-B*35:01): ≤ 0.1 nM
Kd (HLA-B*07:02): 223 nM

Kd (HLA-A*26:01): ≥ 20000 nM
Kd (HLA-B*27:03): ≥ 20000 nM
Kd (HLA-B*18:01): ≥ 20000 nM
Kd (HLA-B*57:01 [9]): 880 nM
Kd (HLA-A*02:01 [10]; [21]): ≥ 20000 nM
Kd (HLA-A*68:02): ≥ 20000 nM
Kd (HLA-A*29:02): ≥ 20000 nM
Kd (HLA-A*02:19): ≥ 20000 nM
Kd (HLA-B*46:01): ≥ 20000 nM
Kd (HLA-A*02:03; [21]): ≥ 20000 nM
Kd (HLA-B*39:01): ≥ 20000 nM
Kd (HLA-A*24:03): ≥ 20000 nM
Kd (HLA-B*15:01 [8]; [21]): ≥ 20000 nM
Kd (HLA-A*69:01 [11]): ≥ 20000 nM
Kd (HLA-A*03:01): ≥ 20000 nM
Kd (HLA-A*02:12): ≥ 20000 nM
Kd (HLA-B*51:01; [21]): ≥ 20000 nM
Kd (HLA-A*02:16): ≥ 20000 nM
Kd (HLA-A*02:11; [21]): ≥ 20000 nM
Kd (HLA-B*15:17 [12]): ≥ 20000 nM
Kd (HLA-A*23:01; [21]): ≥ 20000 nM
Sequence: QTDNDIWFW

Sequence: MTAASYARY
IC50 (HLA-B*53:01): ≥ 20000 nM

Sequence: RQPLNIQAI
Kd (HLA-A*02:06; [22]): 59.2 nM
Kd (HLA-A*02:01 [10]; [22]): 305 nM

Sequence: RLYQYSFAK
Kd (HLA-C*04:01; [20]): ≥ 5000 nM
Kd (HLA-B*15:42; [20]): ≥ 5000 nM
Kd (HLA-B*45:06; [20]): ≥ 5000 nM
Kd (HLA-B*83:01; [20]): ≥ 5000 nM

Kd (HLA-B*58:01 [13]): 1380 nM
Kd (HLA-A*01:01 [14]): 12 nM
Kd (HLA-C*12:03; source organism: Escherichia coli B171): 9 nM
Sequence: YSALRPHEY

Sequence: HPVLVTATL
IC50 (HLA-B*53:01): 3910 nM

Sequence: VMLQIPFYK
Kd (HLA-A*23:01; source organism: Rickettsia bellii RML369-C): 308 nM

Sequence: REMHHLVEF
Kd (HLA-C*04:01; [23]): ≥ 5000 nM
Kd (HLA-B*15:42; [23]): ≥ 5000 nM
Kd (HLA-B*45:06; [23]): ≥ 5000 nM
Kd (HLA-B*83:01; [23]): ≥ 5000 nM

Sequence: MLNRYKLIY
IC50 (HLA-B*53:01): 170 nM
